The source of these data is US20070224125A1 (APPLIED RESEARCH SYSTEMS ARS HOLDING N V, published 2007).

The assay addresses T1, Bovine Serum Albumin (BSA) (bovine, UniProt P02769 25-607).
T1 construct: Negative control
Put plainly: proteins spotted on nitrocellulose filters, incubated with radiolabeled chemokine.

T1 sequence (P02769 25-607 limits assumed): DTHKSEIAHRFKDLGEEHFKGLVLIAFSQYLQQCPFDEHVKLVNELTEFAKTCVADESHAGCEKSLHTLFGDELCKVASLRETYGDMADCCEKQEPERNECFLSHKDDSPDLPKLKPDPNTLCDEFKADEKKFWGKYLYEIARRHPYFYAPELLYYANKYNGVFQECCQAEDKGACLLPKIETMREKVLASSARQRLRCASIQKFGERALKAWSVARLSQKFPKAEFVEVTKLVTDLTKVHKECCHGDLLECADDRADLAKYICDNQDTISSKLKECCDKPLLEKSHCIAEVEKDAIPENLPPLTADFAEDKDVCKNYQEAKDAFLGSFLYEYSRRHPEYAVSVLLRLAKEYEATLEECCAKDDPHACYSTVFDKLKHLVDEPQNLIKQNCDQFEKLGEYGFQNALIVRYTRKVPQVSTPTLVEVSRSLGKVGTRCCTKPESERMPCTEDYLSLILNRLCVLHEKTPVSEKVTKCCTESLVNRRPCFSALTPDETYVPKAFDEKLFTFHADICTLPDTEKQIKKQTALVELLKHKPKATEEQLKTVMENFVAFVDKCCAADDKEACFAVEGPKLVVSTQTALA

B1: CCL3/MIP-1alpha (ligand, UniProt P10147 24-92, looked up)
chain: SLAADTPTACCFSYTSRQIPQNFIADYFETSSQCSKPGVIFLTKRSRQVCADPSEEWVQKYVSDLELSA
notes: also called CCL/MIP-1alpha; 125I-MIP-1alpha
As to B1, the binding result is “no binding”.

B2: CCL5/RANTES (ligand, UniProt P13501 24-91, looked up)
chain: SPYSSDTTPCCFAYIARPLPRAHIKEYFYTSGKCSNPAVVFVTRKNRQVCANPEKKWVREYINSLEMS
Take B2: the binding result is given as “no binding”.
